Test results as given in patent CN117024595A (JIANGXI LECHENG XINSHENG BIOTECHNOLOGY RES CO LTD, dated 2023).

Biological target: T1, 带有His组氨酸标签蛋白的人ST2重组蛋白 (human, UniProt Q01638 19-328, limits assumed)
T1 construct: Captured on a His-capture BLI sensor; also called His-tagged recombinant human ST2 protein; not shown: His tag
T1 sequence (looked up): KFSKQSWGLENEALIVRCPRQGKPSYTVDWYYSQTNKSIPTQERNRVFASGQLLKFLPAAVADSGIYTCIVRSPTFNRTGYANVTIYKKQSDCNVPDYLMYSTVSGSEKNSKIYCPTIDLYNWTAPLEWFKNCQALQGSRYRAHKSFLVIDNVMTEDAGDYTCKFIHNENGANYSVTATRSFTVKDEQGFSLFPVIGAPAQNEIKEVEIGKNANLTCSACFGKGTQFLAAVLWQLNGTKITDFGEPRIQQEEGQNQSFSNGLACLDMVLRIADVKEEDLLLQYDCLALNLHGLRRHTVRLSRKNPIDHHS
Assay: BLI, His-tagged human ST2 captured on HIS sensor, antibody in solution at several concentrations

B1: 检测抗体D12(抗人ST2的单克隆抗体) (antibody, V domains shown)
VH: QVTLKESGPGILQPSQTLSLTCSFSGFSLSTSGMGVGWIRQPSGKGLEWLAHIWWDDVKQYNPALKSRLTISKDTSSSQVFLKIASVDTADIATYYCARLGGNWDYFDYWGQGTTLTVSS
VL: DIVLTQSPASLVVSLGQRATISCRASESVDSCGVSFMKWLQQKPGQPPKLLIYVASKVESGVPARFGGSGSGTDFSLNIHPVEEDDFAVYFCQQSRKVPWTFGGGTKLEIK
notes: Mouse hybridoma monoclonal antibody purified from ascites on Protein G; HRP-labelled in one orientation of the sandwich ELISA; coupled to fluorescent microspheres in the strip; also called detection antibody
  Kd: 0.02 nM
